From the supplement of paper PMC12042874 come the findings set out here.

± gives the uncertainty stated by the source.

This data set in a line: amyloid nucleation score (Sup35N fusion, yeast selection) (log enrichment); library NNK3; higher = more nucleation; inactive = no reads after selection. The method in brief:
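Nucleation score: DiMSum log enrichment of output over input reads, centred on the mode score of non-aggregating sequences. Only sequences with at least 100 input reads were kept. Reads came from Illumina sequencing of plasmid inserts before and after 7 days of growth at 30°C without adenine and uracil, in psi-negative yeast expressing Sup35N fused to peptides of 20 random codons after 24 hours of induction with 100 μM copper sulfate.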
As to SFVPDLRARVMSCSGCSTLG, the amyloid nucleation score entry was “inactive”.
The figure for SFVYVSALVSLHGGFADAKF is 0.885 ± 0.22; for SFWCRVSHLSRDTFMDVRFM it is “inactive”.
On to SFWTQ, for which the amyloid nucleation score result is “inactive”.
To SFYEEGFVSYLDIRGIVYGA belongs “inactive”; to SFYLVYRGIFDISLTEFVL, “inactive”.
SGCDLLFFYYHRRTVPLANW: the amyloid nucleation score entry was “inactive”.
With SGDPGGHQSRR, the amyloid nucleation score result was “inactive”.
SGFLYCNLSKSSCYAFQAGG: the amyloid nucleation score entry was “inactive”.
In the case of SGFVRWRSISFLPNHERLST, the amyloid nucleation score result is “inactive”.
The entry for SGISCGLGLATGRKYGSGAV is “inactive”; for SGKFTSGLIVRSASIGLYST it is 0.747 ± 0.26; for SGLLSAVLDAAS it is “inactive”.
On to SGMLIVLRSWLDRDSICEGR, for which the amyloid nucleation score result was “inactive”.
To SGSAQLECASSRAYVMIVHL belongs 0.425 ± 0.18.
The entry for SGVGCKSLFWSSVAYMSIWG is “inactive”; for SGVSFDSIGVSVLQTHGGLR it is “inactive”; for SGWKQSGS it is “inactive”.
To SHGHYCIVFVFTRL belongs “inactive”.
For SHHSHSNDVALGSSISF, the amyloid nucleation score entry is “inactive”.
SHNGLKTLNGSFLAYLSCRA gave an amyloid nucleation score of 0.904 ± 0.16.
On to SHNSHGYFLSVLVVMRMSGR, for which the amyloid nucleation score entry was “inactive”.
On to SHRGDAVLVFCLVCLVILDG, for which the amyloid nucleation score entry was “inactive”.
To SHRVNWFLCSCLESYFMCNT belongs -0.522 ± 0.78.
Consider SHSLS, for which the amyloid nucleation score result is “inactive”.
For SIAIHSMLKYNVPLVSRHSG, the amyloid nucleation score result was “inactive”.
To SIFAVSGLSVF belongs “inactive”; to SIFCGCLVLLTGNYLLICIS, 1.13 ± 0.17; to SIFHLTSKVYISDWFC, 2 ± 0.088.
Take SIFIYDVPIVSRWRIFGKQS: the amyloid nucleation score result is “inactive”.
The figure for SIFSSCLSPYSFSYIKLLSC is 0.504 ± 0.26; for SIGNAIS it is “inactive”; for SIGNCIFYTMAVFQWSTYTL it is “inactive”.
Take SIGQHWLGS: the amyloid nucleation score entry is “inactive”.
To SIGVFRYFVLVLHYWYGISS belongs “inactive”; to SIGYDCLQSGAFKSLHTMAL, “inactive”.
To SIHCIYSWR belongs 1.27 ± 0.12; to SIILGCCLWLHLMH, 2.08 ± 0.059.
Substance SIIVTVQLWYVGV had an amyloid nucleation score of 0.422 ± 0.36.
With SIKLGILEMCKA, the amyloid nucleation score result is “inactive”.
To SILKFNQSLQSLFSNYYHLC belongs 1.14 ± 0.097; to SIMTSFRPFPTWRCG, -0.563 ± 0.57; to SIRLIIKELDGNDTCIGVSG, “inactive”.
Substance SISPVSPGIRAKITTAEMVR showed an amyloid nucleation score of -0.201 ± 1.1.
To SITYCWLHR belongs 1.77 ± 0.078.
Turning to SKCIKLFNFNVSCFQTSSLL, the amyloid nucleation score was 2.29 ± 0.092.
As for SKLWSYWDLSWLTLKVGWLR, the amyloid nucleation score result was “inactive”.
The entry for SKRARVKWSTQPHFVRYLLE is “inactive”; for SKSKYHFYHHGEAWSTLVVV it is “inactive”; for SKSQSSHHDSYSLWTM it is “inactive”.
Take SLAKFNMNYGTYGLEGFSVW: the amyloid nucleation score is -0.209 ± 0.81.
SLAVGLLNCLL came in with an amyloid nucleation score of 2.17 ± 0.075.
The figure for SLCVVGP is -0.107 ± 0.6; for SLESWFVTRRCSRYESTFMS it is “inactive”; for SLEVLIYDGKCMSCDDVVNG it is “inactive”.
The entry for SLFFN is “inactive”; for SLGTLISLPYTSA it is “inactive”; for SLIDHYLSDLSKKS it is “inactive”.
To SLILALFSGISSDF belongs 0.122 ± 0.37; to SLKEVSFWSASRDDGGDRMQ, “inactive”; to SLKGVITSFVRNVFFNRAMY, “inactive”.
In the case of SLLYEEPEVLINNSSGSAS, the amyloid nucleation score entry is “inactive”.
The entry for SLMCLLVRLLIKN is “inactive”.
With SLMKGCTLLDSFRLRKP, the amyloid nucleation score result was “inactive”.
To SLMYKWKEGSQDGYCWAW belongs 0.824 ± 0.28; to SLNKHR, “inactive”.
The entry for SLNMLDFFYSLFGVCNKTVL is “inactive”.
Take SLNWVGVCNMKSPVNSTQSI: the amyloid nucleation score worked out at 0.329 ± 0.67.
The entry for SLSFIECLMELNNLVYYLGS is “inactive”; for SLSLSIIRAVDFWDMVRGLN it is “inactive”; for SLSVVMLLKVVVRPSNWWEG it is “inactive”.
To SLTSWGRMMSWVPCSKELRQ belongs “inactive”.
In the case of SLTVKFSLLKGESQVDHFVS, the amyloid nucleation score was -0.158 ± 0.85.
In the case of SLVIAIHRAFLFMAGRSRVG, the amyloid nucleation score result is “inactive”.
The entry for SLVSFFCHVGNKWFNHDFPI is “inactive”.
The entry for SLVSYINGKVKNVPCKSCCY is “inactive”.
For the substance SLVTRGLPVCRFRSDSDYSI, the amyloid nucleation score result is “inactive”.
Consider SLWSVEDSGYKC, for which the amyloid nucleation score entry was “inactive”.
As to SLWYIRSLLCFEVLSLFHLL, the amyloid nucleation score result is “inactive”.
To SLYRGYLFGCGQFDNIVYEL belongs “inactive”; to SMANFTAETSDIRINFIVSM, 0.779 ± 0.14.
The entry for SMCMRCLSVSKKKAQKSDEP is “inactive”; for SMCRTPILQPIAVQNVSMGR it is “inactive”; for SMFRSRFLKVRDVSTTSQCA it is “inactive”.
Regarding SMFYMRFHVQ, the amyloid nucleation score entry is “inactive”.
The entry for SMKFC is “inactive”.
To SMKGNSWF belongs “inactive”.
SMLVELVFSLQTQSSGSSGR had an amyloid nucleation score of -0.059 ± 0.43.
The entry for SMNNWGFDNICSQVCPLAAM is “inactive”; for SMNPIECYNAHLVSSGFWVQ it is “inactive”.
Turning to SMNRV, the amyloid nucleation score entry was “inactive”.
The entry for SMQKGGK is “inactive”; for SMRLVAWYW it is “inactive”; for SMWYASFTYESYLCLFKESR it is “inactive”.
The entry for SMYLYVAWARVLNDLDNID is “inactive”; for SNAFSGLRQLPPSNDSLCKG it is “inactive”; for SNAMMGSRRIGLMGYAVRVL it is “inactive”.
Turning to SNCFPLSFWIR, the amyloid nucleation score is -0.88 ± 1.3.
The entry for SNDYCRGCVCLDSGMNVCVA is “inactive”.
As to SNFLGNQRMLRSAQIPRMRL, the amyloid nucleation score entry was “inactive”.
As for SNHIDAVNHDGHSHPYHTTR, the amyloid nucleation score result was “inactive”.
To SNIGVGKTYHRCTFFFWLIC belongs 0.989 ± 0.24.
To SNKECLLGIGWFASYKVIPT belongs “inactive”; to SNKSHVCYFSIEFVLISGLS, “inactive”; to SNNLEGVLSVCDFVF, “inactive”.
To SNPLQGDSLRSVLSCNSIYF belongs “inactive”; to SNSHVTKDLGVCRGLATCRG, “inactive”.
On to SNSVIW, for which the amyloid nucleation score entry is “inactive”.
In the case of SNSYYWPNLYVFSTVNMVSD, the amyloid nucleation score came to 2 ± 0.098.
In turn, SNVGSDDTFLVLLHSHSRSG showed an amyloid nucleation score of 0.72 ± 0.49.
The substance SNYFTFYLFNVRGIWGFADC gave an amyloid nucleation score of 2.56 ± 0.07.
Substance SPAHGLGFDMKMVVFMFGDR showed an amyloid nucleation score of 1.54 ± 0.12.
To SPDTARTH belongs “inactive”; to SPHLLDWSKIAFLVSHMPHS, “inactive”.
To SPICNEEYNNVDTCILWGYF belongs “inactive”; to SPLLNPGPSWF, “inactive”; to SPMRLLGSSFGQ, “inactive”.
As to SPQGTVCNQSIFVALPLRVG, the amyloid nucleation score result is “inactive”.
To SPQVLDRWDQFKWKFVFRGS belongs 0.584 ± 0.13.
On to SPVIKRYCILM, for which the amyloid nucleation score entry is “inactive”.
The entry for SPVMPMMFGNKRVPLITDLR is “inactive”; for SPVSNYYDIKVVRDVSGCFT it is “inactive”.
Regarding SPWYLNVAIGTAKGCLSFID, the amyloid nucleation score entry was “inactive”.
In the case of SQDFKLPSLSTFYRHGMEPS, the amyloid nucleation score result is “inactive”.
To SQGGFRNMWR belongs “inactive”; to SQLRP, “inactive”.
In the case of SQSLPFVCA, the amyloid nucleation score entry was “inactive”.
To SQWIIGFTVTCFSSCKILKM belongs “inactive”; to SRALDGYKVPRFWIVRARGR, “inactive”.
To SRCFWQSLEVTVILGSCINT belongs 1.64 ± 0.11; to SRCGSIGGMKG, “inactive”.
